# Results: the nanobody polyreactivity screen of Harvey et al. (2022)
# Assay: yeast display, Sf9 membrane polyspecificity reagent, FACS + sequencing; frameworks hold sequencing errors
# Method in brief: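 A nanobody's polyreactivity label depends on the gate it was sorted from. Yeast display cells were stained with 10% biotinylated, detergent-solubilized Sf9 membrane reagent for 1 hour at 4 °C, enriched on streptavidin microbeads and sorted by FACS. The low and high (top ~1%) gates were set on anti-HA fluorescence for expression and streptavidin fluorescence for reagent binding.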
row,Sequence,polyreactivity (PSR sort gate)
1,QVQLVESGGGLVQAGGSLRLSCAASGIFASYAMGWYRQAPGKERELVAAIRSSGGRTYYADSVKGRFTISRDNAKNTFYLQMNSLKPEDTAVYYCAARYYTYDGYSKYDFWGQGTQVTVSS,high polyreactivity
2,QVQLEESRGGLVQAGGSLRLSCAASGLTSRQYAMGWYSQAPGKERELVAAITLRDGSTYYADSVKGRFTISRDNAKNTDYLQMNSLKPEDTAVYYCARRYLGLYSHFDYWGQGTQVTVSS,high polyreactivity
3,QVQLVESGGGLLHAGGSLRLSCAASGRTFYSNAMGWYRQAPGKERELVASISSRGSTNYADSVKGRFTISRDNAKNTVYLEMNSLKPEDTAVYYCAKRTHQFGVSRSYNTYYYWGHGTQVTVSS,low polyreactivity
4,QVQLVESGGGLVQAGGSLRLTCAASAFIYRRNAMGSYRQAPGKERELVAAITGGGGSTYYADSVKGSFTISRDNAKNTVYLQMNSLKPEDTAVYYCAVDLSRLYNRGGDYWGQGTQVTVSS,high polyreactivity
5,QVQLVESGGGLVQAGGSLRLSCAASGRTFDGYDMGWYRQAPGQERELVAAINVVGGSTYYADSVKGRFTISRDNAKNTVYLQMNSLKPEDTAVYYCAADDYIYTVYSYTYEYWGQGTQVTVSS,low polyreactivity
6,QVQLVESGGGLVHAGGSLRLSCAASGRTFKVYAMGWYRQAPGKERELVASISRSGGSTYYSDSVKGRFTISRDIAKNTVFLQRNSLKPEDTAVYYCAADFCFYGSRVWEYDYWGQGTQVTVSS,high polyreactivity
7,QVQLEETGGGLVQAGGSLLLSCEASGLTIHPYAMGWYRHAPGKERELVAAISSRGTSTYYADSVKWRFTISRDTAKNTVYLQMNSLKPEDTAVYYCAARHGPRAEAMYYWGQGPQVTVSS,high polyreactivity
8,QVQLVESGAGLVQAGGSLGLSCAASGFTFRTYAMGWYRQAPGKERELVADISGSGGSTYYADSVKGRFTISRYNAKNTVYLQMISLKPEDTAVYYCAGTIYNWGYERDYWGQGTQVTVSS,high polyreactivity
9,QVQLVESGGGLVQAGGSLRLTCAASGSTLYVYPMGWYRPAPGKERELVASINSGGSTNYADSVKGRFSISRDNAKNTVYLQMNSLKRVDTAVYYCNAEYYGWFHHYDYWGQGTQVTVSS,high polyreactivity
10,PVQLVESGGGLVQAGGSLRVSCAASGSIFYKNAMGWYRQAPGKEREMVAAITSSGGRTYYADSVKGRFTISRDNPKNTVYLQMNSLKPEDTAVFYCAAVYGYDKYDSWGLGTQVTVSS,low polyreactivity
11,QVQLVESGGVLVQAGGSLRLSCAASGFTFVAYTMGWYRQAPGKDRELVASIPNVGSTNYADSVKGRFTISRDKAMNTVYLLMNSLKPEDTAVYYCAAEYLGWHYLYLPFRDYDSWGQGTQVTVSS,low polyreactivity
12,QVQLVESGGGLVQAGGSLRLSCAAYGIIFRYYAMGWYRQAPGKERELVAAITASGGSTYYADSVKGRFTISRDHAKNTVYLQMNSLKPEDTAVYFGAAGSYFQHLIGYSTVSYGRNYWGQGTQVTVSS,high polyreactivity
13,QVQLVESGGGLVQAGGSLRLSCAASGRIFFTNAMGWYRQAPGKERELVAAISKYGARTYYADSVKGRFTISRDKAKNTVYLQMNSLKPEDTAVYYCAADVSVSGYYYWGQGTQVTVSS,high polyreactivity
14,QVQLVESGGGLVQAGGSLRLSCAASGNTFVDYAMVWYRQAPGKERELVAAIDQTGGSTYYADSVKGRFTISRDNAKNTVYLQMNSLKPEDTAVYYCARDLAYRKDLYPRWYDYWGQGTQVTVSS,low polyreactivity
15,QVQLVESGGGLVQAGGSLRLSCAASGFIFGYNAMGWYRQAPGKESEFVAAISSSGASKYYADSVKGRFTISRDNAKNTVYLQMNSLKPEDTAVYYCAARYSWARYASTMGYWGQGTQVTVSS,high polyreactivity
16,QVQLVESGGGLVQAGGSLRLSCAASGFIFGYNAMGWYRQAPGKERELVAAISSGGSTYYADSVKGRFTISRDNAKNTVYLQMKSLKPEDTAVYYCAVELGYPIQSYALWWDFEYWGQGTQVTVSS,low polyreactivity

row,Sequence,polyreactivity (PSR sort gate)
1,QVQLVESGGGLVQAGGSLRLSCAASGNTITWNTMGWYRQAPGKERELVAVITSDGSTYYADSVKGRFTISRDNAKNSVYLQMNRLKPEDTSVYYCNALCAEWYPEEDYWGQGTQVTVSS,low polyreactivity
2,QVQLVESGGGLVQAGGSLRLSCAASGSTFYVYAMGWYRQAPGKERELVAGITDSGGSTYADSVKGRFTISRDNAKNTVYLQMNSLKPEVTAVYYCAADGETLTPRILGESEGDYWGQGTQVTVSS,low polyreactivity
3,QVQLVESGGGLVQAGGSLRLSCAASGRIFTYYTMGWYRQAPGKERELVAAISYSGRTYYADSVKGRFTISRDNAKNTVYLQMNSLKPEDTAVYYCNAARPRGYGFDYWGQGTQVTVSS,high polyreactivity
4,QVQLVESGGGLVQAGGSLRLSCAASGFIFRDYAMGWYRQAPGKERELVATISSS,low polyreactivity
5,QVQLVESGGGLVQAGGSLRLSCAASGSIFYVYGMGWYRQAPGKERELVARITDSGGSTSYADSVKGRFTISRDNAKNTVYLQMNSLKPEDTAVYYCAAYVRPWYNYWGQGTQVTVSS,low polyreactivity
6,QVQLVESGGGLVQAGGSLRLSCAASGFTFAAYDKGWSRQAPGKELELVAAITKSGASTYYADSVKGRFTISRDIAKNTFYLQMNSLKPEDTAVYYCAAKNTLYSYYYWGQGTQVTVSS,high polyreactivity
7,QVQLQESGSGLVQARGSLRLSCAASGAIFPAYLMGWYRHAPGKERELVAGISYGSITYCADSVKGRFNISRDNAKNTVYLQRNSLKPEDTAVYYCAVWRPGGDEYYYWGQGTQVTVSS,low polyreactivity
8,QVQLVESGGGLVQEGGSLRLSCAASGSIFSGYAMGWYRQAPGKERELVAGITWSGGSTYYADSVKGRFTISRDNAKNTVYLQMNSLKPEDTSVYYCAAKYYWYYSYSGIPLFDYWGQGTQVTVSS,low polyreactivity
9,QVQLVESGGGLVQAGGSLRLSCAASGYTIRYYAMGWYRQAPGKERDLVAAISSSGGNTYYADSVKGRFTISSDNAKNTVYLQMNSLKPEDTAVYYCAAAYHPYHRVTGHDGGYDYWGQGTQVTVSS,low polyreactivity
10,QVQLVESGGGLVQAGGSLRLSCAASGSTFSRYAMGWYRQAPGKERELVAAISWSGGSTYYADSVKGRFTISRDTAKNTVYLQMNSLKPEDTAVYYCAAYTYSFRANHDYWGQGTQVTVSS,high polyreactivity
11,QVQLLESGGGLVQAGGSLRLSCAASGRIFVSNAMGWYRQAPGKERELVAAISKSGGRTYYADSVKGRFTISRDNAKNTVYLQMNSLKPEDTAVYYCAADIFTQGFDYWGQGTQVTVSS,high polyreactivity
12,QVQLVESGGGLVQAGGSLRLSCAASGRTFLVYTMGWYREAPGKERELVAAISWSDGSTYYADSVKGRFTISRDNAKNTVYLQMNSLKPEDTADYYCAARRTGYLYRYGYWGQGTQVTVSS,low polyreactivity
13,QVQLVESGGGLVQAGGSLRLSCAASGLIFSQNAMGWYRQAPGKERELVARITLSGTSTYYADSVKGRFTISRDNAKNTVYLQMNSLKPEDTAVYYCNTRSYSYYVPYRYDYWGQGTQVTVSS,high polyreactivity
14,QVQLVESGGGLVQAGGSLRLSCAASGSIFPFYAMGWYIQAPGKERELVAAISDRGGSTYYADSVKGRFTISRDNAKNTVYLQMNSLKPEDTAVYYCAADKYSQWSSHTRVRYDYWGQGTQVTVSS,low polyreactivity
15,QVQLVESGGGLVQAGGSLRLSCAASGSIYGLYAMGWYRQAPGKERELVATITSGSSTNYADSVKGRFTISRDNAKNTVYLQMNSLKPEDTAVYYCAVDDLYGFDYWGQCTQVTVSS,low polyreactivity
16,QVQLVESGGGLVQAGGSLRLSCAASGFTLLPNALGWYRQAPGKERELVAAITASGGRTYYADSVKGRFSISRDNAKNTVYLLMKSLKPVDTAVYDCTAGVYYYTPYTRMDYWGQGTQVTVAS,low polyreactivity
